Measured values: the supplement of paper PMC6757056
± gives the standard deviation of the averaged measurements.

B1: library; a variant is named by its letters at N, in order (parent)
chain: GCUGUCACCGAGAAACUGUGAAGUAUAUCUUAAACCUGGGCACUUAAAAGAUAUAUGGAGUUAGUAGUGCAACCUGCUCGGUCUGAUGAGUCCNNNNNNGGACGAAACAGC
B2: library; a variant is named by its letters at N, in order (parent)
chain: GCUGUCACCGGUGCUUGGUACGUUAUAUUCAGCCGGUCUGAUGAGUCUNNNNNNAGACGAAACAGC

Variants of: B1
Experiment: FACS-Seq fitted mean relative fluorescence mCherry/BFP without ligand (log10 relative fluorescence); HEK293T; ligand: cyclic di-GMP (c-di-GMP-II aptamer); higher = higher reporter protein expression
Settings: ligand present: no
Description: (§1)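 Hammerhead (sTRSV) ribozyme switch libraries with a ligand aptamer grafted on stem I and a randomized N4-6 loop II, cloned into the 3' UTR of mCherry and transiently transfected into HEK293T cells; RNA-Seq 72 h post transfection with ligand added 1 h before transfection; RNA read count / plasmid DNA read count normalized to the non-cleaving sTRSVctl (x100), log10; sequences with >100 DNA reads. FACS-Seq: lentiviral library sorted into 6 bins after 48 h ligand, log-normal fit mean of mCherry/BFP scaled to controls. Printed sequences are partial switch sequences.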
With UAAAAG the “FACS-Seq fitted mean (log10)” value was -0.3384 ± 0.0033.
With GAAAAA the “FACS-Seq fitted mean (log10)” value was -0.369 ± 0.068.
For GAAAAG, the “FACS-Seq fitted mean (log10)” value was -0.45 ± 0.058.
With CAAAAA the “FACS-Seq fitted mean (log10)” value was -0.703 ± 0.047.
CAAAAC was tested, and the “FACS-Seq fitted mean (log10)” value was -0.495 ± 0.03.
With CAAAAU the “FACS-Seq fitted mean (log10)” value was -0.237 ± 0.17.

Variants of: B1
Experiment: normalized RNA/DNA level without ligand (relative to sTRSVctl = 100) (log10 (% of sTRSVctl)); HEK293T; ligand: cyclic di-GMP (c-di-GMP-II aptamer); higher = less ribozyme self-cleavage, higher mRNA level
Settings: reporter: mCherry (pCS4076), ligand present: no
Description: as §1
In the case of UAAAAG, the “normalized RNA/DNA level without ligand (log10)” value is reported as 1.685 ± 0.0079.
In the case of GAAAAA, the “normalized RNA/DNA level without ligand (log10)” value is reported as 1.41 ± 0.1.
For GAAAAG, the “normalized RNA/DNA level without ligand (log10)” value was 1.575 ± 0.0029.
In the case of CAAAAA, the “normalized RNA/DNA level without ligand (log10)” value is reported as 1.21 ± 0.087.
In the case of CAAAAC, the “normalized RNA/DNA level without ligand (log10)” value is reported as 1.58 ± 0.055.
CAAAAU was tested, and the “normalized RNA/DNA level without ligand (log10)” value was 1.45 ± 0.11.

Variants of: B1
Experiment: FACS-Seq fitted mean relative fluorescence mCherry/BFP with ligand (log10 relative fluorescence); HEK293T; ligand: cyclic di-GMP (c-di-GMP-II aptamer); ligand concentration (+) FACS-Seq: 1 mM; higher = higher reporter protein expression
Settings: ligand present: yes
Description: as §1
UAAAAG was tested, and the “FACS-Seq fitted mean (log10)” value was -0.102 ± 0.2.
With GAAAAA the “FACS-Seq fitted mean (log10)” value was -0.0537 ± 0.033.
GAAAAG was tested, and the “FACS-Seq fitted mean (log10)” value was -0.228 ± 0.032.
For CAAAAA, the “FACS-Seq fitted mean (log10)” value was -0.444 ± 0.071.
With CAAAAC the “FACS-Seq fitted mean (log10)” value was -0.278 ± 0.08.
In the case of CAAAAU, the “FACS-Seq fitted mean (log10)” value is reported as 0.0784 ± 0.017.

Variants of: B1
Experiment: normalized RNA/DNA level with ligand (relative to sTRSVctl = 100) (log10 (% of sTRSVctl)); HEK293T; ligand: cyclic di-GMP (c-di-GMP-II aptamer); ligand concentration (+) RNA-Seq: 1 mM; higher = less ribozyme self-cleavage, higher mRNA level
Settings: reporter: mCherry (pCS4076), ligand present: yes
Description: as §1
In the case of UAAAAG, the “normalized RNA/DNA level with ligand (log10)” value is reported as 1.84 ± 0.1.
GAAAAA was tested, and the “normalized RNA/DNA level with ligand (log10)” value was 1.61 ± 0.12.
GAAAAG was tested, and the “normalized RNA/DNA level with ligand (log10)” value was 1.74 ± 0.14.
With CAAAAA the “normalized RNA/DNA level with ligand (log10)” value was 1.46 ± 0.079.
For CAAAAC, the “normalized RNA/DNA level with ligand (log10)” value was 1.77 ± 0.14.
With CAAAAU the “normalized RNA/DNA level with ligand (log10)” value was 1.65 ± 0.085.

Variants of: B2
Experiment: normalized RNA/DNA level without ligand (relative to sTRSVctl = 100) (log10 (% of sTRSVctl)); HEK293T overexpressing SLC46A1; higher = less ribozyme self-cleavage, higher mRNA level
Settings: without (6R,S)-folinic acid; ligand present: no
Outline: (§2)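 Only sequences with at least 100 DNA reads were analyzed, from HEK293T cells transfected with 4 µg per 6-well well of ribozyme switch library plasmids 72 h before RNA extraction with EDTA. Any ligand was added 1 h before transfection. RNA level was defined as RNA over DNA reads, normalized to a spiked-in non-cleaving sequence or to the top sequences, then scaled and log-transformed. The top set was 25 sequences, and the scaling was ×100 followed by log10.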
In the case of GUUAUC, the “normalized RNA/DNA level without ligand (log10)” value is reported as 2.027 ± 0.012.
For GUUAUU, the “normalized RNA/DNA level without ligand (log10)” value was 2.016 ± 0.0067.
For GUUUGA, the “normalized RNA/DNA level without ligand (log10)” value was 2.013 ± 0.0046.
With GUUUGG the “normalized RNA/DNA level without ligand (log10)” value was 1.985 ± 0.015.
For GUUUGC, the “normalized RNA/DNA level without ligand (log10)” value was 1.951 ± 0.018.
For UUUAAU, the “normalized RNA/DNA level without ligand (log10)” value was 1.975 ± 0.0038.
For UUUAAA, the “normalized RNA/DNA level without ligand (log10)” value was 1.934 ± 0.0037.
In the case of UUUAAC, the “normalized RNA/DNA level without ligand (log10)” value is reported as 1.978 ± 0.011.
With UUUUCU the “normalized RNA/DNA level without ligand (log10)” value was 2.012 ± 0.011.
UUUUCA was tested, and the “normalized RNA/DNA level without ligand (log10)” value was 2.018 ± 0.011.
For UUUUCC, the “normalized RNA/DNA level without ligand (log10)” value was 2.02 ± 0.022.
In the case of UUUUCG, the “normalized RNA/DNA level without ligand (log10)” value is reported as 1.87 ± 0.018.
UUUAGG was tested, and the “normalized RNA/DNA level without ligand (log10)” value was 1.879 ± 0.012.
UUUAGA was tested, and the “normalized RNA/DNA level without ligand (log10)” value was 1.99 ± 0.02.
UUUAGC was tested, and the “normalized RNA/DNA level without ligand (log10)” value was 1.998 ± 0.005.
In the case of UUUAGU, the “normalized RNA/DNA level without ligand (log10)” value is reported as 1.957 ± 0.0051.
For GUGUGG, the “normalized RNA/DNA level without ligand (log10)” value was 1.908 ± 0.0095.

Variants of: B2
Experiment: normalized RNA/DNA level with ligand (relative to sTRSVctl = 100) (log10 (% of sTRSVctl)); HEK293T overexpressing SLC46A1; ligand concentration (+) RNA-Seq: 6 mM; higher = less ribozyme self-cleavage, higher mRNA level
Settings: with (6R,S)-folinic acid; ligand present: yes
Outline: as §2
In the case of GUUAUC, the “normalized RNA/DNA level with ligand (log10)” value is reported as 2.044 ± 0.0079.
With GUUAUU the “normalized RNA/DNA level with ligand (log10)” value was 2.007 ± 0.02.
In the case of GUUUGA, the “normalized RNA/DNA level with ligand (log10)” value is reported as 2.05 ± 0.034.
GUUUGG was tested, and the “normalized RNA/DNA level with ligand (log10)” value was 2.03 ± 0.044.
For GUUUGC, the “normalized RNA/DNA level with ligand (log10)” value was 2.02 ± 0.067.
For UUUAAU, the “normalized RNA/DNA level with ligand (log10)” value was 1.988 ± 0.014.
With UUUAAA the “normalized RNA/DNA level with ligand (log10)” value was 1.97 ± 0.047.
In the case of UUUAAC, the “normalized RNA/DNA level with ligand (log10)” value is reported as 1.99 ± 0.028.
In the case of UUUUCU, the “normalized RNA/DNA level with ligand (log10)” value is reported as 2.01 ± 0.038.
UUUUCA was tested, and the “normalized RNA/DNA level with ligand (log10)” value was 2.02 ± 0.041.
For UUUUCC, the “normalized RNA/DNA level with ligand (log10)” value was 2 ± 0.032.
With UUUUCG the “normalized RNA/DNA level with ligand (log10)” value was 1.998 ± 0.0083.
For UUUAGG, the “normalized RNA/DNA level with ligand (log10)” value was 2 ± 0.045.
In the case of UUUAGA, the “normalized RNA/DNA level with ligand (log10)” value is reported as 2.03 ± 0.025.
With UUUAGC the “normalized RNA/DNA level with ligand (log10)” value was 2 ± 0.044.
For UUUAGU, the “normalized RNA/DNA level with ligand (log10)” value was 1.99 ± 0.015.
GUGUGG was tested, and the “normalized RNA/DNA level with ligand (log10)” value was 2.03 ± 0.048.
